# According to the nanobody polyreactivity screen of Harvey et al. (2022):
# Test: yeast display, Sf9 membrane polyspecificity reagent, FACS + sequencing; frameworks hold sequencing errors
# Summary of the method: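 Galactose induction of a Saccharomyces cerevisiae BJ5465 synthetic nanobody display library ran 36–48 hours. The cells were then stained for 1 hour at 4 °C with 10% biotinylated, detergent-solubilized Sf9 membrane reagent, pulled down on streptavidin microbeads and FACS-sorted into low and high (top ~1%) gates on expression and reagent-binding fluorescence. Labels for polyreactivity follow the gate of origin.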
row,Sequence,polyreactivity (PSR sort gate)
1,QVQLVESGGGLVQAGGSLRLSCAASGFTFAVYAMGWYRQAPGKERELVAAISRSGTRTYYADSVKGRFTISRDNAKNTVYLQMNSLKPEDTAVYYCAADKYRHGYDYWGQGTQVTVSS,low polyreactivity
2,QVQLEDSGGGLDQAGGSLRLSCAASGITFIRYAMVWYRQAPGKERELVAAIPTSGSSKFYADSVKGRFTISRDNAKNTVYLQMNSLKPEDTAVYYCAAVFRWARLYTFYGSKVDYWGQGTQVTVSS,high polyreactivity
3,QVQLVESGAGFVQAGGSLRLTCAASGRNLSWYAMGWYRQAPGKEREYVAAITSSGASTYYADSVKGRFTISRDNAKNTVYLQMNSLKPEDTAVYYSNAAWRRVWFNYWGQGTQVTVSS,high polyreactivity
4,QVQLVESGGGLVQAGGSLRLSCAASAFTFYYYDMGWYRQAPGKERELVAAIDTSDGSTYYADSVKGRFTISRDNAKNTVYLQMNSLKPEDTAVYYCSAEVDWVPFLLVYWGQGTQVTVSS,low polyreactivity
5,QVQLVESGGGLVQAGGSLRLSCAASGSTFVYNDMGWYRQAPGKEREFVAAITYSGSTYYADSVNGRFTISRDNAKNTVYLQMNSLKPEDTAVYYCNADPRRPVTSYDYWGQGTQVTVSS,low polyreactivity
6,QVQLVESGGGLVQAGGTLRLSCAASGITFKRYAMGWYRLAPGKERELVATISRSGGSPYADSVKGRFTISRDNAMNTVYLQMNSLKPEDSAVYYCNAVSQSSEYDYWGEGTQVTVSS,high polyreactivity
7,QVQLVESGGGLVQAGGSLRLSCAASGSIFVENAMGWNRQAPGKEREFVAAITRSGGSTYYADSVKGRFTISRDNAKNTVYLQMKILKPEDTAVYYCSARIWDEQPAGGYYWGQGTQVTVSS,low polyreactivity
8,QVQLVESGGGLVQAGGSLRLSCAASGRTLPYNAMGWYRQAPGKERELVAAISKRGSSTYYADSVKGRFTISRDNAKNTVYLQMNSLKPEDTAVYYCAKGGSFYYWGQGTQVTVSS,high polyreactivity
9,QVQLVESGGGLVQAGGSLRLSCAASGSIFRYYAMGWYRQAPGKERELVATISRDGGNTYYADSVKGRFTISRDNAKNTVYVQMNSLKPEDTAVYYCAKLGYRLSGYGYDYWGQGTQVTVSS,high polyreactivity
10,QVQLVQSGGGLVQAGGSLSLSCAASGSIFNYNAMGWYRQAPGKERELVAAITSADGRTFYADSVKGRFTISRDNAKNTVYLQMNSLKPEDTAVYYCAAERTSRYSTYEYWGQGTQVTVSS,low polyreactivity
11,QVHLVQSGGGLVQAGGSLRLSCAASGRTFYIYAMGCYRQAPGKERELVAAISWRGGSTYYANSVKGRFTISLDHAKYTVYLQMNSLKPEDTAVYYCAAEGAHVKWYRNWWEYDDWGQGTQVTVSS,high polyreactivity
12,QVQLVESGGGLVQAGGSLRLSCAASGSIFDINAMGWYRQAPGKERELVAVITDSGSTYYADSVKGRFTISRDNAKNTVYLQMNSLKPEDTAVYYCAAESSLLFFLMDYWGQATQVTVSS,low polyreactivity
13,QVQLVESGGGLVQAGGRLRLSCAASGFIFRPYAMGWYRQAPGKERELVPTISYRGGSTDYADSVKGRFTISRDNAKNTVYLQMNSLKPEDTAVYYCNAGYNRGYYYPVFAFFPYEYWGQGTQVTVSS,low polyreactivity
14,QVQLVESGGGLVQAGGSLRLSCAASGFIFRRYALGWYRQAPGKERELVAAISWGGTSTYYADSVKGRFTISRDNAKNTVYLQMNSLKPVDTAGYYCAADRSVRTRGGFDYWGQGTQVTVSS,high polyreactivity
15,QDQLVESGGGLVQAGGSLRLSCAASGFTFVINDMGWYRQAPGKEREMVADITSGGDTYYADSVKGRFTISRDNAKNTVDLQMNSLKPEDTAVYYCAADIYPDWIYLLYGYWGQGTQVSVSS,low polyreactivity
16,QVQLVESGGGIVQAGGSLRLSCAASAIIFLDNPMGWSRQAPGKERELVADITSSGGSTYYADSVKGRFTISRDNAKNTVSLQMNSLKPEDTAVYYCAKYVYGKFDGVRFSYDYWGQGTQVTVSS,low polyreactivity
17,QVQLVESGGGLVQAGGSLRLSCAASGRTFYAYAMGWYRQAPGKERELVAAISSGGSTYYADSVKGRFTISRDNAKNTVYLQMNSLKPEDTAVYYCNAGYYQWPFSGYDYWGQGTQVTVSS,low polyreactivity
18,QVQLVESGGGVVQAGGSLRLSCAASGRTFKKYAMGWYRQAPGKEREFVARITYSAGSTYYADSVKGRFTISRDNAKNSVYLQMNSLKPEDTAVYYCASRFASSGPRWYSRHGEYDYWGQGTQVTVSS,low polyreactivity
19,QVQLVDSGGGLVQAGGSLRLSCAAYGRIFGIYTMGWYRQAPGKERELVAAIRFSGSRTYYADSVKGRFTISRDNAKNTVYLQMNSLKPEDTAVYYCNADWWFYRLRNEYWGQGTQVTVSS,high polyreactivity
20,QVQLVESGGGLVQAGGSLRLSCAASGRTFSYYAMGWYRQAPGKERELVAAITSSGTGTYYADSVKGRFTISRDNAKNTVYLQMNSLKPEDTAVYYCAVLTTSKSRVKLYYWGQGTQVTVSS,high polyreactivity
21,QVQLVESGGGLVQAGGSLRLSCAASGLTFRAYTMGWYRQAPGKERELVAAISRSGGSTYYADSVKGRFTISRDNAKNTVYLQMNSLKPEDTAVYYCAAPGYQTVGMGYWGQGTQVTVSS,high polyreactivity
